This experiment has as its target FITC-casein (UniProt P02662). Put plainly: fluorescence polarisation. (In general: Polarisation of emitted light reports the rotation of a fluorescent probe.)

The text below walks through data of PMC3909490.

Chain of UniProt P02662 (P02662 16-214): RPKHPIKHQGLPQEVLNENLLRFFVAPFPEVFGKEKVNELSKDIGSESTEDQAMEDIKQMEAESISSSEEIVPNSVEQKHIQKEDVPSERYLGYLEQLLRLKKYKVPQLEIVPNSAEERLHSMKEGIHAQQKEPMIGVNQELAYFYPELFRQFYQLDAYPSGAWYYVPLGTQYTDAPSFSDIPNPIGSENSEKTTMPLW

As a reminder, the Kd is the concentration at which binding is half-saturated. For the substance “Hsp104^WT (from UniProt P31539 1-908) (natural protein)”, the dissociation constant (Kd) amounted to 65 nM.

“Hsp104^A503V (from UniProt P31539 1-908) (natural protein)” had a Kd of 80 nM.
